# Assay results published in the supplement of paper PMC9170038.
# Tested on: MS2 coat protein
# Test: apparent KD of MS2 coat protein; designed switch direction (-1 OFF switch, 1 ON switch): -1; higher = weaker reporter binding
# Method in brief: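 On Illumina chips, designed RNA switches with common flanks were made by stalled E. coli RNA polymerase. Titrations with SNAP-549-labelled MS2 coat protein, doubling from 0.7 or 1.5 nM to 3 µM, were done with no input, with 200 uM small-molecule ligand, or with an oligonucleotide input. Apparent KD is the median per design over clusters, from curve fits of normalised cluster fluorescence.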
# [1] = Eterna round: R95, input ligand: FMN 200 uM
# [2] = Eterna round: R95, input ligand: microRNA oligo, concentration not stated
# [3] = Eterna round: R95, input ligand: none
# [4] = input ligand: microRNA oligo, concentration not stated
Sequence,apparent KD of MS2 coat protein [1] [nM],apparent KD of MS2 coat protein [2] [nM],apparent KD of MS2 coat protein [3] [nM],apparent KD of MS2 coat protein (input ligand: FMN 200 uM) [nM],apparent KD of MS2 coat protein [4] [nM],apparent KD of MS2 coat protein (input ligand: none) [nM]
"AGAAGUAGUAGCCGAUCCUACAUGAGGAUCACCCAUGUAGCUAGACGUGCACGCGAUGCUCGUCAGACUACCAGAUG [salish99_TOv1_r3_031] (puzzle: Sensor v3, turn-off variant 1)",131,120,155,–,–,–
AGACAGUCAGGAUAUACAUGAGGAUCACCCAUGUUGAGAUGAGAAAGGGCAGGAAGAGGUAGAAGGGACAAGAA [JR_Exclu3_Sub035] (puzzle: Exclusion 3),28.3,19.2,24.8,–,–,–
"AGACGGAGAAAAGGAUAUGAGACACUAGACGUCUCAGAAGGUUUAGCCAGUAGCUCCAACAUGAGGAUCACCCAUGUGGUCGUA [Eternabot solution 41] (Eterna round: R96, puzzle: Exclusion NG 1)",–,–,–,50,108,184
AGAGCACAUGAGGAUCACCCAUGUCAGGAUAUGCAAGAAAGAAAGAAAGAAAGAAAGAGCAGAAGGGACAAAUA [?solved?] (puzzle: Exclusion 1),34.9,34.2,43.2,–,–,–
"AGAGCCGUUGUAGGAUAUGCCCUCGGGUGAUGCCGGUCGCCACAUGAGGAUCACCCAUGUAGCGGGCAGAAGGGCAAACUCAGU [Eternabot solution 43] (Eterna round: R96, puzzle: Exclusion NG 2)",–,–,–,26.6,13.4,18.5
"AGAGUAAUGCGAGGAUAUACAUGAGGAUCACCCAUGUGGUGGUGUGAGGCAAAGCCUCACACCAUGUAGAAGGCGCAUUACUCA [Mat - Exclusion NG 2 - Mod of JL - D21] (Eterna round: R96, puzzle: Exclusion NG 2)",–,–,–,155,35.2,39.3
"AGAGUGCUGCGAGGAUAUACAUGAGGAUCACCCAUGUUUACCUGUGAGGCAAAGCCUCACAGGUAGUAGAAGGCGCAGUACUCA [Mat - Exclusion NG 2 - Mod of JL - D43] (Eterna round: R96, puzzle: Exclusion NG 2)",–,–,–,14.6,14.3,12.3
AGAUCACAUGAGGAUCACCCAUGUCAGGAUAUGAUACUAUGUACUUCGGUACAUAGUAUCAGAAGGGAUAUAAA [Ex1-3: 68] (puzzle: Exclusion 1),–,75.1,–,–,–,–
AGAUCCUGAGUCAGGAUAUAGAGGCGGUAGCCUGGCUAGAAGGGACAUGAGGAUCACCCAUGUGGGUUCUUGCC [Gecela] (puzzle: Brourd's mod of Exclusion 4),–,12.7,–,–,–,–
"AGAUCGUCAGGAUAUACAUGAGGAUCACCCAUGUACUGUCUAAAUUUGACUGUAAGAUGUAGAAGGGACGAUCG [Exclusion 3 (MOD9 of #1 Marzena11)] (Eterna round: R97, puzzle: Exclusion 3)",–,–,–,67.3,–,25.8
"AGAUCUAUCACGAAAGUGAUAGAUCAAAUUAGUUUUUAAACAUGAGGAUCACCCAUGUCCUAGUGGGCUAGUCUUAU [Mat - Sensor v2 - var 2 - Mod - D135] (Eterna round: R96, puzzle: Sensor v2, turn-off variant 2)",–,–,–,236,167,239
AGAUGGCGAGGAUAUACAUGAGGAUCACCCAUGUGAAGAGAUAAAGUGAGGAAGAAAAGUAGAAGGCGCUGUCA [Mat - Exclusion 3 - Mod of Salish D24] (puzzle: Exclusion 3),199,51.4,40.9,–,–,–
"AGAUGUAGAUACCGAUCCUACAUGAGGAUCACCCAUGUAGCUAGACGUGCACGCGUAGCUCGUCAGACUACCAGAAG [salish99_TOv1_r3_085] (Eterna round: R96, puzzle: Sensor v3, turn-off variant 1)",–,–,–,461,253,449
"AGAUGUAGAUACCGAUCCUACAUGAGGAUCACCCAUGUAGCUAGACGUGCACGCGUAGCUCGUCAGACUACCAGAAG [salish99_TOv1_r3_085] (puzzle: Sensor v3, turn-off variant 1)",292,147,223,–,–,–
"AGAUGUAGAUACCGAUCCUACAUGAGGAUCACCCAUGUAGCUAGACGUGCGGGCGGCGCUCGUCAGACUACCAGUAG [salish99_TOv1_r3_094] (puzzle: Sensor v3, turn-off variant 1)",271,214,371,–,–,–
AGAUUAUGAGGAUAUCGAGUUUAGUACAUGAGGAUCACCCAUGUUAUCCAGGUCUCGUUUCGAGAAGGCAUGAUUC [LRO-Ex5-09] (puzzle: Exclusion 5),–,35.3,–,–,–,–
"AGCAAGCAAUAGGAUAUGCCUGCAAGCUUGCAUGCAGAAGGAUUGACUUGAGGAUCACCCAAGUGGGCUCCUAA [Erbexe] (Eterna round: R97, puzzle: Exclusion 6)",–,–,–,319,–,49.5

Sequence,apparent KD of MS2 coat protein [1] [nM],apparent KD of MS2 coat protein [2] [nM],apparent KD of MS2 coat protein [3] [nM],apparent KD of MS2 coat protein (input ligand: FMN 200 uM) [nM],apparent KD of MS2 coat protein [4] [nM],apparent KD of MS2 coat protein (input ligand: none) [nM]
"AGCAGACGAGGAUAUAAAUUUGAUAACAUGAGGAUCACCCAUGUGAUCGAUAGAUCAAAUUUAGAAGGUGUCUGCU [E5/7-B1] (Eterna round: R97, puzzle: Exclusion 5)",–,–,–,512,–,490
"AGCAGACGAGGAUAUAGAUUUAGAUACAUGAGGAUCACCCAUGUAUAUAUGUAUUUAGAUUUAGAAGGCGUCUGCU [E5/15-A1] (Eterna round: R97, puzzle: Exclusion 5)",–,–,–,222,–,219
"AGCAUGUGAGGAUAUGCGGACUCCGGUAAAGCUGGAGUCCAGUAGAAGGCACAUGAGGAUCACCCAUGUGAGAU [Uszadi] (Eterna round: R96, puzzle: Exclusion 4)",–,–,–,317,53.3,63.2
"AGCCAAGCAGGAUAUAUCCGGGAUAACAUGAGGAUCACCCAUGUGACCGCUUGAUAUCCUAUAGAAGGGCUUGGGA [Mod of ViennaUCT 24 - Jieux - Exclusion 5] (Eterna round: R97, puzzle: Exclusion 5)",–,–,–,54.8,–,24.9
"AGCCACAGAGGAUAUACAUACAUCCAGUGGUUAAGAAUACAACAUGAGGAUCACCCAUGUAGAAGGCUGUGGCA [Omei Ex2 BD B10] (Eterna round: R97, puzzle: Exclusion 2)",–,–,–,394,–,152
"AGCCACAGAGGAUAUACAUACAUCCAGUGGUUAAGAAUACUACAUGAGGAUCACCCAUGUAGAAGGCUGUGGCA [Omei Ex2 BD B11] (Eterna round: R97, puzzle: Exclusion 2)",–,–,–,108,–,22.4
AGCCCUGGCGUCAGGAUAUCGAAACCGCAAAAGGACGAGAAGGGACAUGAGGAUCACCCAUGUAGUGAGUUAAA [Isedrecedi] (puzzle: Brourd's mod of Exclusion 4),35.6,34.5,39,–,–,–
AGCGAGCUAGGAUAUACAUGAGGAUCACCCAUGUCUUUUUAGUACUACGGUGGAAGAUGUAGAAGGAGUGAGAA [Soisza] (puzzle: Exclusion 3),–,92.3,–,–,–,–
"AGCGGACAAGGAUAUACAUGAGGAUCACCCAUGUACUUAGCAAGUUUGUUUCGUCGAUGUAGAAGGUGUAAUGU [EX3 C.14] (Eterna round: R97, puzzle: Exclusion 3)",–,–,–,19.4,–,20.2
"AGCUAGUCAGGAUAUACAAACAUGUCAAAAGACGUGAAGAGACAUGAGGAUCACCCAUGUAGAAGGGACUAGCA [Mat - Exclusion 2 - JL mod - D13] (Eterna round: R96, puzzle: Exclusion 2)",–,–,–,88.1,15.7,22.9
"AGCUAGUGAGGAUAUACGAACAUGUCAAAAGACUGUAAGGGACAUGAGGAUCACCCAUGUAGAAGGCACUAGCA [Diamond 55] (Eterna round: R96, puzzle: Exclusion 2)",–,–,–,–,32.4,–
"AGCUAUGCCGAGGAUAUCGGCUGGAUAAGACACUGAGAAGGCGGGACAUGAGGAUCACCCAUGUGAACCUAUAU [Eternabot (L1) Solution 30] (Eterna round: R97, puzzle: Exclusion 6)",–,–,–,27.3,–,30.2
"AGCUGUGGCCAAGGAUAUCUAACCUUAAAUACCGACGUAUAGUCGGACAUGAGGAUCACCCAUGUGGAGAAGGUGGUCUCAGCA [Eli eng2 - 043] (Eterna round: R96, puzzle: Exclusion NG 2)",–,–,–,–,18.3,–
"AGCUGUGGCCGAGGAUAUCUACAUGAGGAUCACCCAUGUGGGUGAAAUAUCGGGAAAACCUCGAUGGAGAAGGCGGUCUCAGCA [Eli eng2 - 046] (Eterna round: R96, puzzle: Exclusion NG 2)",–,–,–,849,234,263
"AGCUGUGGCCGAGGAUAUCUGAAACUCAAAACCGAAAUAUAAUCGGACAUGAGGAUCACCCAUGUAGAGAAGGCGGUCUCAGCA [Eli eng2 - 079] (Eterna round: R96, puzzle: Exclusion NG 2)",–,–,–,–,126,–
"AGCUUUUUGCUCGUCUUAUACAUGAGGAUCACCCAUGUAUUGGACCACAUCGAUAGAUGUGGACCAAGAAGCAUGGU [Omdei Mir OFFv1 C3] (Eterna round: R97, puzzle: Sensor, turn-off variant 1)",–,–,–,46.8,–,45.2
"AGGAAUCUAGGAUAUAUAUGAAACGAUCCAGAUUCAAGGAAACAUGAGGAUCACCCAUGUAGAAGGAGAGAAAA [EX2 A.17] (Eterna round: R97, puzzle: Exclusion 2)",–,–,–,23.4,–,21.5
